What was measured:
[1] = molecular target: T1, cynomolgus monkey FcγRIIa3 extracellular domain, C-terminal His-tag (cynomolgus monkey); experiment: SPR (BIACORE); KD of parent SG1 / KD of variant;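 further: relative to parent M103205H795-SG1 carrying the SG1 human heavy chain constant region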
T1 construct: also called cyno FcγRIIa3; cynoFcgRIIa3; not shown: His-tag added to C-terminus
T1 chain: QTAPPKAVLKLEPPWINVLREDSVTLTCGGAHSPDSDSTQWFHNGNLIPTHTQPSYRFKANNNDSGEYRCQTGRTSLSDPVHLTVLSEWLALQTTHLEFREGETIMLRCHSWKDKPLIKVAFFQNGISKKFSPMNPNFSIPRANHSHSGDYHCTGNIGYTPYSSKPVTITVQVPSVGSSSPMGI

[2] = molecular target: T2, cynomolgus monkey FcγRIIIaS extracellular domain, C-terminal His-tag (cynomolgus monkey, UniProt A3RFZ7 21-206 (rhesus entry)); experiment: SPR (BIACORE); KD of parent SG1 / KD of variant;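 further: relative to parent M103205H795-SG1 carrying the SG1 human heavy chain constant region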
T2 construct: also called cyno FcγRIIIaS; cynoFcγRIIIaS; not shown: His-tag added to C-terminus

[3] = molecular target: T3, cynomolgus monkey FcγRIIb extracellular domain, C-terminal His-tag (cynomolgus monkey); experiment: SPR (BIACORE), antibody captured, FcγR analyte
T3 construct: also called cyno FcγRIIb; cynoFcγRIIb; not shown: His-tag added to C-terminus
T3 chain: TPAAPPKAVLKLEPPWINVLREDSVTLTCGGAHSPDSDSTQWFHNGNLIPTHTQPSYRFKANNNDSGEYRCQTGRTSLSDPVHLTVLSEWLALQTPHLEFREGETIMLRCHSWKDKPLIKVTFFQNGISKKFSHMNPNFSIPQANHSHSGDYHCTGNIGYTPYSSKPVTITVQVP

[4] = molecular target: T4, human FcγRIIb extracellular domain, C-terminal His-tag (human, UniProt P31994 43-217); experiment: SPR (BIACORE), antibody captured, FcγR analyte
T4 construct: also called humanFcgRIIb; not shown: His-tag added to C-terminus
T4 sequence: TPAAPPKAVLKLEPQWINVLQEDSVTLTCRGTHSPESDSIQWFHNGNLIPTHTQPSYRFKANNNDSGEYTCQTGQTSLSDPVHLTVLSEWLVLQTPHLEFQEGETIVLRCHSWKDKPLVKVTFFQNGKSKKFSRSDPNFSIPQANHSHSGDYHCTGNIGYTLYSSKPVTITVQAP

[5] = molecular target: T5, cynomolgus monkey FcγRIIa1 extracellular domain, C-terminal His-tag (cynomolgus monkey); experiment: SPR (BIACORE), antibody captured, FcγR analyte
T5 construct: also called cyno FcγRIIa1; cynoFcgRIIa1; not shown: His-tag added to C-terminus
T5 chain: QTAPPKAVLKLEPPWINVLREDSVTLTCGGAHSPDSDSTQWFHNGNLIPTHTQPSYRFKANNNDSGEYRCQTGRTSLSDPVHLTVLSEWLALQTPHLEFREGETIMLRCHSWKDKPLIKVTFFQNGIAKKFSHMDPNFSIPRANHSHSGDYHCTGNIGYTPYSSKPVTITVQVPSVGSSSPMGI

[6] = molecular target: T6, human FcγRIIaH extracellular domain, C-terminal His-tag (human, UniProt P12318 34-217); experiment: SPR (BIACORE), antibody captured, FcγR analyte
T6 construct: also called human FcγRIIa (type H); FcgRIIaH; not shown: His-tag added to C-terminus
T6 sequence: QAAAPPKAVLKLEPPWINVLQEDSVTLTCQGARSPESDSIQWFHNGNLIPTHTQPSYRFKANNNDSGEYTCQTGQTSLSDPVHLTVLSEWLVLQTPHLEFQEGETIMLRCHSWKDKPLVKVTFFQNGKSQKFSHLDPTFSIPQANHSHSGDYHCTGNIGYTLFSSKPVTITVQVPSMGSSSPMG

[7] = molecular target: T7, cynomolgus monkey FcγRIIa2 extracellular domain, C-terminal His-tag (cynomolgus monkey); experiment: SPR (BIACORE), antibody captured, FcγR analyte
T7 construct: also called cyno FcγRIIa2; cynoFcgRIIa2; not shown: His-tag added to C-terminus
T7 chain: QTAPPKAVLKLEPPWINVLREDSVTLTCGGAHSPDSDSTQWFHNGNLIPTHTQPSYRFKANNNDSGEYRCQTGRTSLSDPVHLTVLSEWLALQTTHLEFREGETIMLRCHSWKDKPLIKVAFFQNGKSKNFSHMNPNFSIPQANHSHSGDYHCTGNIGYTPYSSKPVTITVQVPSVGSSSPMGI

[8] = molecular target: T8, human FcγRIIaR extracellular domain, C-terminal His-tag (human, UniProt P12318 34-217); experiment: SPR (BIACORE), antibody captured, FcγR analyte
T8 construct: also called human FcγRIIa (type R); FcgRIIaR; not shown: His-tag added to C-terminus
T8 chain: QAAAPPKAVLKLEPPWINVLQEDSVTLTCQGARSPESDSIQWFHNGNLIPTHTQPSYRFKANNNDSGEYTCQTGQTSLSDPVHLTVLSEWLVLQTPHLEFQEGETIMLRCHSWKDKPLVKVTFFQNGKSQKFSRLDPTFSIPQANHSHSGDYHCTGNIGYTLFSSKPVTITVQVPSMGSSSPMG

[9] = molecular target: T1, cynomolgus monkey FcγRIIa3 …; experiment: SPR (BIACORE), antibody captured, FcγR analyte
[10] = molecular target: T2, cynomolgus monkey FcγRIIIaS …; experiment: SPR (BIACORE), antibody captured, FcγR analyte
[11] = molecular target: T9, human FcγRIIIaV extracellular domain, C-terminal His-tag (human, UniProt P08637 17-208); experiment: SPR (BIACORE), antibody captured, FcγR analyte
T9 construct: also called FcgRIIIaV; not shown: His-tag added to C-terminus
T9 sequence (P08637 17-208 F176V): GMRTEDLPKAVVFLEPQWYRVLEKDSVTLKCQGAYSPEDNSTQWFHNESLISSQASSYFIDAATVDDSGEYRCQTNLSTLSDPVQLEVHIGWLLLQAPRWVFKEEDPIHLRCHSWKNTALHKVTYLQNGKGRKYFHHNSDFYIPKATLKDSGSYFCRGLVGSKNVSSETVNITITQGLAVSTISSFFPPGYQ

T2 sequence (A3RFZ7 21-206): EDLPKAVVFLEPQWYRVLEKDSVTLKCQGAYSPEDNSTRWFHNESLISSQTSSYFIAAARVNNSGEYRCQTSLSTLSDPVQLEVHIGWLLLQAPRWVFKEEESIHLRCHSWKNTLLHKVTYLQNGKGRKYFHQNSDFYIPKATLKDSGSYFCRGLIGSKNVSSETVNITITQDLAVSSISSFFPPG

KD fold (SG1 = 1) [1]: 1 fold | KD fold (SG1 = 1) [2]: 1 fold | Kd [3]: 1.9 µM | Kd [4]: 4.7 µM | Kd [5]: 4.8 µM | Kd [6]: 0.89 µM | Kd [7]: 4.7 µM | Kd [8]: 1 µM | Kd [9]: 8.6 µM | Kd [10]: 0.28 µM | Kd [11]: 0.62 µM
B1: MS_M103205H795-SG1/M103202L889-SK1 (antibody, human IgG1, kappa)
heavy: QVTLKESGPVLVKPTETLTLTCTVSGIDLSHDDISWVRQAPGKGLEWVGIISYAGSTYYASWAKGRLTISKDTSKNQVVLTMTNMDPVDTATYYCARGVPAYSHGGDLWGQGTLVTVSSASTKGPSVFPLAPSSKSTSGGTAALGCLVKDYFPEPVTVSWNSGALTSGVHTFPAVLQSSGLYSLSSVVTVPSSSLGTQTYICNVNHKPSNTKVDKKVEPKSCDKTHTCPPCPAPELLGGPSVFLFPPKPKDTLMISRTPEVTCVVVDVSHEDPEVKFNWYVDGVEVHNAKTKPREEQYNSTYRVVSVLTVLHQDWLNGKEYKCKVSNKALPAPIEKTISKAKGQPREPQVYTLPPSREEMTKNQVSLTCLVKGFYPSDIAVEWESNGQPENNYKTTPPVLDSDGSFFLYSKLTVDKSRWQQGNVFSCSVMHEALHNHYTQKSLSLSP
light: DIVMTQSPATLSLSPGERATLSCTSSQSVYHANWLSWFQQKPGQPPKLLIYWASTLAYGVPSRFSGSGSGTDFTLTISSLQPEDAATYYCAGGYGGGRYAFGQGTKVEIKRTVAAPSVFIFPPSDEQLKSGTASVVCLLNNFYPREAKVQWKVDNALQSGNSQESVTEQDSKDSTYSLSSTLTLSKADYEKHKVYACEVTHQGLSSPVTKSFNRGEC
notes: Parent antibody with SG1 human heavy chain constant region; also called MS1032LO06-SG1

Source: US20200317768A1 (published 2020)
